Source: PMC3135484 (Molecular Biology of the Cell, 2011)

B1: His-tagged Vti1 (1-189, ΔTMD) (domain or fragment)
chain: MSSLLISYESDFKTTLEQAKASLAEAPSQPLSQRNTTLKHVEQQQDELFDLLDQMDVEVNNSIGDASERATYKAKLREWKKTIQSDIKRPLQSLVDSGDRDRLFGDLNASNIDDDQRQQLLSNHAILQKSGDRLKDASRIANETEGIGSQIMMDLRSQRETLENARQTLFQADSYVDKSIKTLKTMTRR
B2: GST-tagged Vam3 (Vam3 1-260, ΔTMD) (domain or fragment)
chain: MSFFDIEAQSSKGNSQQEPQFSTNQKTKELSNLIETFAEQSRVLEKECTKIGSKRDSKELRYKIETELIPNCTSVRDKIESNILIHQNGKLSADFKNLKTKYQSLQQSYNQRKSLFPLKTPISPGTSKERKDIHPRTEAVRQDPESSYISIKVNEQSPLLHNEGQHQLQLQEEQEQQQQGLSQEELDFQTIIHQERSQQIGRIHTAVQEVNAIFHQLGSLVKEQGEQVTTIDENISHLHDNMQNANKQLTRADQHQRDRN
B3: His-tagged Ykt6 (1-200) (natural protein)
chain: MRIYYIGVFRSGGEKALELSEVKDLSQFGFFERSSVGQFMTFFAETVASRTGAGQRQSIEEGNYIGHVYARSEGICGVLITDKEYPVRPAYTLLNKILDEYLVAHPKEEWADVTETNDALKMKQLDTYISKYQDPSQADAIMKVQQELDETKIVLHKTIENVLQRGEKLDNLVDKSESLTASSKMFYKQAKKSNSCCIIM

Legend:
Experiment in all cases: pull-down
[1] = target: T1, Vps16 (individual HOPS subunit, TAP-purified) (yeast (S. cerevisiae), UniProt Q03308 1-798)
T1 sequence: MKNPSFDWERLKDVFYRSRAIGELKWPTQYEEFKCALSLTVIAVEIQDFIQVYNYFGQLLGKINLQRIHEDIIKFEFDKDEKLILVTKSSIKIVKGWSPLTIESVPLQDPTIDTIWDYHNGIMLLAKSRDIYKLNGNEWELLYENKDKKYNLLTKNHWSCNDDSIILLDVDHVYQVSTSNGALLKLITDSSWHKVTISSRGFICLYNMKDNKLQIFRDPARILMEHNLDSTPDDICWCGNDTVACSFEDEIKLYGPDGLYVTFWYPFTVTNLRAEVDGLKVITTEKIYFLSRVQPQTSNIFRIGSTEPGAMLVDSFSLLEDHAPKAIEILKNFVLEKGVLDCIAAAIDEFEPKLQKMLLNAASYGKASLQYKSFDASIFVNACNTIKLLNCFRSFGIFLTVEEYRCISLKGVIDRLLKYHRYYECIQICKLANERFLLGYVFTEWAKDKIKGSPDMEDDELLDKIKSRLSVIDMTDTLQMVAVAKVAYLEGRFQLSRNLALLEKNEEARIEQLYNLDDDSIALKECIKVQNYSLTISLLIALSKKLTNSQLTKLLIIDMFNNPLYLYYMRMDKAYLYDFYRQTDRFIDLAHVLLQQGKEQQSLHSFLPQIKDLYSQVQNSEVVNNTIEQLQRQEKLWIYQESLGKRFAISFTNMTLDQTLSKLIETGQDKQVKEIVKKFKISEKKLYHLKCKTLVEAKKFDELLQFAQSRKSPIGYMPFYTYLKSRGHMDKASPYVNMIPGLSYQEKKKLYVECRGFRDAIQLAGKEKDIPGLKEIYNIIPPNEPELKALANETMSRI

[2] = target: HOPS (homotypic fusion and protein sorting) complex (yeast (S. cerevisiae), UniProt P38959;Q07468;P20795;P12868;Q03308;P27801)
[3] = target: T2, Vps18 (individual HOPS subunit, TAP-purified) (yeast (S. cerevisiae), UniProt P27801 1-918)
T2 sequence: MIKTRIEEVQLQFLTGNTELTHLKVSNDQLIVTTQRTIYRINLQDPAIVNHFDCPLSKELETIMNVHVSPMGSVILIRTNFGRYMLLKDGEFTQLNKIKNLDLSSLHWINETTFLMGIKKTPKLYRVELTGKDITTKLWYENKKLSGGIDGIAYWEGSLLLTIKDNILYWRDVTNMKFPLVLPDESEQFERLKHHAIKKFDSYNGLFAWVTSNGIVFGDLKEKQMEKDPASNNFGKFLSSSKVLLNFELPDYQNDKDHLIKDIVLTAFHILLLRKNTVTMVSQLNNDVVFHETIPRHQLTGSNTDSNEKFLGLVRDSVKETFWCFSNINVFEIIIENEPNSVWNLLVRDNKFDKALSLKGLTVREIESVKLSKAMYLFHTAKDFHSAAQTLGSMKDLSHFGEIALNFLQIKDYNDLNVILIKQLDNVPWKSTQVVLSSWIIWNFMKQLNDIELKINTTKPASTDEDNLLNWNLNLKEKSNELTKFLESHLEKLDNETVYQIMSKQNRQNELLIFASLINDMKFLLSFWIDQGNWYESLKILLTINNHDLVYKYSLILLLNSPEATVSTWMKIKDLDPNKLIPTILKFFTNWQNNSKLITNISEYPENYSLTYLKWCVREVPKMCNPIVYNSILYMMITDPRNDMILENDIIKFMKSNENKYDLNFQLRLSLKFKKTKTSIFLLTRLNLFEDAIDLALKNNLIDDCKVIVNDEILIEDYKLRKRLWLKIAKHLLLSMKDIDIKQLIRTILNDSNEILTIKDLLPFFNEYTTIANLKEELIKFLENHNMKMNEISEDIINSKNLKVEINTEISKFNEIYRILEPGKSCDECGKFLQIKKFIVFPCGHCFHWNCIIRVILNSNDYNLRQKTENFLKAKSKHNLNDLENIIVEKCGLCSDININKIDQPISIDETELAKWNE

[4] = target: T3, Vps33 (individual HOPS subunit, Sec1/Munc18 protein, TAP-purified) (yeast (S. cerevisiae), UniProt P20795 1-691)
T3 sequence: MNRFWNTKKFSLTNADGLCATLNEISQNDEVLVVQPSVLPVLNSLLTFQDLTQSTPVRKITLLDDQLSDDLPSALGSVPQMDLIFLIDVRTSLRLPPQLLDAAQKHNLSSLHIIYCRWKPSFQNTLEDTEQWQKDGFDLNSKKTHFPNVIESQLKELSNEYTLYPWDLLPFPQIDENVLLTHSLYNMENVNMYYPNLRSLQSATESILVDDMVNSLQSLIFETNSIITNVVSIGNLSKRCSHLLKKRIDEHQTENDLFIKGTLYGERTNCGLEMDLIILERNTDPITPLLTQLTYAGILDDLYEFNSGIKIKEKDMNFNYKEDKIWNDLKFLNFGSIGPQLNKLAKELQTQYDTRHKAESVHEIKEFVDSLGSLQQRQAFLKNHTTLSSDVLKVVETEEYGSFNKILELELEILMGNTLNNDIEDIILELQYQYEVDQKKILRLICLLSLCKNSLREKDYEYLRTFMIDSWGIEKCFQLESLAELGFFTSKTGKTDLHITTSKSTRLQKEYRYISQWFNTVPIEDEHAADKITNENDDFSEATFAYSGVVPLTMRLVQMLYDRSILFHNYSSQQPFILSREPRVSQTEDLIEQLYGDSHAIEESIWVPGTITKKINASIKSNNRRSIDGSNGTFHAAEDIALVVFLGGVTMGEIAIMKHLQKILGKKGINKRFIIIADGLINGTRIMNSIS

[5] = target: B2
[6] = target: B1
[7] = target: T4, His-tagged Vam3 (1-264, ΔTMD) (S. cerevisiae, UniProt Q12241 1-264)
T4 sequence: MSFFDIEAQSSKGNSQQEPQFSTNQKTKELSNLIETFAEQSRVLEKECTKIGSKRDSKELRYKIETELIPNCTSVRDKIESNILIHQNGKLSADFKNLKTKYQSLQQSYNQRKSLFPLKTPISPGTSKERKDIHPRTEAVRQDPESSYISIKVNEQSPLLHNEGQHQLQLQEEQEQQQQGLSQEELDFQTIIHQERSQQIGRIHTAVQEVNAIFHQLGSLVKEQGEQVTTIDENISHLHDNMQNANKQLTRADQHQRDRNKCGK

[8] = target: B3
[9] = target: T5, His-tagged Vam7 (1-316) (S. cerevisiae, UniProt P32912 1-316)
T5 sequence: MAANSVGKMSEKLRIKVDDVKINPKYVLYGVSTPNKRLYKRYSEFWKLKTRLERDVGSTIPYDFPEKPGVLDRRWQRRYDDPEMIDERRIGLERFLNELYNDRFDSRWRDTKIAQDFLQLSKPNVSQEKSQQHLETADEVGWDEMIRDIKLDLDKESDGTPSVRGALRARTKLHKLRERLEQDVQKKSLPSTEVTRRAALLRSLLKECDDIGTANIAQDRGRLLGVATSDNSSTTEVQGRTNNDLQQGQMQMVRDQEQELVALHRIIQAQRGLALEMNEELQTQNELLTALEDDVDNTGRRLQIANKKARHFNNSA

HOPS (homotypic fusion and protein sorting) complex, sequence (P38959 whole entry, chain 1 of 3, the tested form may be a part): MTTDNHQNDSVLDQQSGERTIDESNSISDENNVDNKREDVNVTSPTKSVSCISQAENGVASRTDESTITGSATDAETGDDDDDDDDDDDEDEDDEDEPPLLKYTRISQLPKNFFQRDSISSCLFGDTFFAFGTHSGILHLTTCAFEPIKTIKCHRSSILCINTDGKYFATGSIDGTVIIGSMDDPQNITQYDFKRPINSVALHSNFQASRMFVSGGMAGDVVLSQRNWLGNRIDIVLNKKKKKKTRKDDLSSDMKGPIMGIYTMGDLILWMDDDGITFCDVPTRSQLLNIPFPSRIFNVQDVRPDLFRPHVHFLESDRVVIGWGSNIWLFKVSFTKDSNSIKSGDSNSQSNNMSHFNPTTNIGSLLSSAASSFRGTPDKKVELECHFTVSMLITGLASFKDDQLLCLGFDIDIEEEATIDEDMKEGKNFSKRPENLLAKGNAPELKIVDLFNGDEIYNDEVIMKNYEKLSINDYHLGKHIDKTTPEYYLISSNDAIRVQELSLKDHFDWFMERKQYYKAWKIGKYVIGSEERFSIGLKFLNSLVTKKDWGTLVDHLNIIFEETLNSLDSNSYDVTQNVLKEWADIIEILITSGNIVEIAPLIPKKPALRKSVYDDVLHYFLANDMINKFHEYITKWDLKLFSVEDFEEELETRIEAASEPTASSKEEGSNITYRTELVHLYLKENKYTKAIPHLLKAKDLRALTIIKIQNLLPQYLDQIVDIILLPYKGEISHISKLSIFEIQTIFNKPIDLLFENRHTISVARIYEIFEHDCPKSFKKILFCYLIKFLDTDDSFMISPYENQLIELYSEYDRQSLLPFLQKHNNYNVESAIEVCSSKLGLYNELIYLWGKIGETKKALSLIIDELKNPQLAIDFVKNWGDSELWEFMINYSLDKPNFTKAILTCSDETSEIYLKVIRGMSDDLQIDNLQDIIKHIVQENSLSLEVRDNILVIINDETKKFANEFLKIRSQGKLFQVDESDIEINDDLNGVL
HOPS (homotypic fusion and protein sorting) complex, sequence (Q07468 whole entry, chain 2 of 3, the tested form may be a part): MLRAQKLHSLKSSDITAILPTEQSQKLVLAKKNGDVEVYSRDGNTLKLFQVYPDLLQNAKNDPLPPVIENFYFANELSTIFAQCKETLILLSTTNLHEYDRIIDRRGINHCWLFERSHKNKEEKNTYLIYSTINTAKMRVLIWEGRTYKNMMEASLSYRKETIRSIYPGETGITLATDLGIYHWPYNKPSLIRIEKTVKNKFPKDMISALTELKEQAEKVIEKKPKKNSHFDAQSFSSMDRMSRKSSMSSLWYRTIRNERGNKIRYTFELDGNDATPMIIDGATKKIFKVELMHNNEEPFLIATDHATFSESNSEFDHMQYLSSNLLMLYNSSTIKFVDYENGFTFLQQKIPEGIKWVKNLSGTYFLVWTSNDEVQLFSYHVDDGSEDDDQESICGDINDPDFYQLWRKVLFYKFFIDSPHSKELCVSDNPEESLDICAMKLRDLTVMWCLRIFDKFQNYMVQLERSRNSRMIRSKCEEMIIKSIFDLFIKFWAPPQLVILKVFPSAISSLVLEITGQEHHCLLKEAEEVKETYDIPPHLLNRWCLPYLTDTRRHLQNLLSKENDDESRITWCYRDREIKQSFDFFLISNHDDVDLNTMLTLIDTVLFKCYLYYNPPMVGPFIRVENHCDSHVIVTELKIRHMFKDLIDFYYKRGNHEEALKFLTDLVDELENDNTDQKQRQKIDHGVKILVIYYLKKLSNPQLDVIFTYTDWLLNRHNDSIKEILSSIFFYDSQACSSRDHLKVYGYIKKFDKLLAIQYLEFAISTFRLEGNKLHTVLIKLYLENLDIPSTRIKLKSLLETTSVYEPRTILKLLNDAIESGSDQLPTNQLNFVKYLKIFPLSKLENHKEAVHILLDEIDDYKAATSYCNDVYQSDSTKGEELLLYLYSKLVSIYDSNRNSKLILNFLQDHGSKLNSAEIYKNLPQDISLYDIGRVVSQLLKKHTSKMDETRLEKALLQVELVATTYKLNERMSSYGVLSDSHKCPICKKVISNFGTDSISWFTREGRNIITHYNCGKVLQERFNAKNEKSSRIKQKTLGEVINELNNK
HOPS (homotypic fusion and protein sorting) complex, sequence (P12868 whole entry, chain 4 of 3, the tested form may be a part): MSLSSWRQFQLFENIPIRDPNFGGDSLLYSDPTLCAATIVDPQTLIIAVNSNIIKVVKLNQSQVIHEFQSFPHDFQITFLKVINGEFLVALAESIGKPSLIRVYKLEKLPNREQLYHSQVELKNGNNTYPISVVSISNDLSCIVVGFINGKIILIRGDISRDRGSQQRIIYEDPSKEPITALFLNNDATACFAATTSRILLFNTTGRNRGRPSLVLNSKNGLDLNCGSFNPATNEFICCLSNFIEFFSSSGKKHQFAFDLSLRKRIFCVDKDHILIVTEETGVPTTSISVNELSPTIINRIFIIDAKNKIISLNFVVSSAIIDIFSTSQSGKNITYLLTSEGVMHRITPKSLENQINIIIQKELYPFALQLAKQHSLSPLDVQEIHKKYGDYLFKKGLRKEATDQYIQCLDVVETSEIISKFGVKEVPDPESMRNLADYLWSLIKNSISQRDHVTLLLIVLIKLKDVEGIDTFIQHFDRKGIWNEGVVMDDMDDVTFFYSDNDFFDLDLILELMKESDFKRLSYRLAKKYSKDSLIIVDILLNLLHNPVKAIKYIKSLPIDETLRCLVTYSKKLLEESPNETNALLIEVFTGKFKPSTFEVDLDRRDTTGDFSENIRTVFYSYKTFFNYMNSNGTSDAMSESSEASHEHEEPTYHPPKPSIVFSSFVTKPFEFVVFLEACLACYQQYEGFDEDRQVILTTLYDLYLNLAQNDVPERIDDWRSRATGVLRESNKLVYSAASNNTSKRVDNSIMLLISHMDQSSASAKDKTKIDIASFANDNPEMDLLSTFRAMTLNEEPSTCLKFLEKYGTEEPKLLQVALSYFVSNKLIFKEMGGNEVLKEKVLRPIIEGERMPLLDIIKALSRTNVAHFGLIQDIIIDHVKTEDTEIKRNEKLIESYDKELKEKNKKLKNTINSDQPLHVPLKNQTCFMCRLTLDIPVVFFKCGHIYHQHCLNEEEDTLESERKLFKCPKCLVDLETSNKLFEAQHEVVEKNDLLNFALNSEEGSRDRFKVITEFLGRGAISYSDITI

Row | Binder | binding result [1] | binding result [2] | binding result [5] | further results
1 | GST-tagged Vam7 (1-316) (natural protein) MAANSVGKMSEKLRIKVDDVKINPKYVLYGVSTPNKRLYKRYSEFWKLKTRLERDVGSTIPYDFPEKPGVLDRRWQRRYDDPEMIDERRIGLERFLNELYNDRFDSRWRDTKIAQDFLQLSKPNVSQEKSQQHLETADEVGWDEMIRDIKLDLDKESDGTPSVRGALRARTKLHKLRERLEQDVQKKSLPSTEVTRRAALLRSLLKECDDIGTANIAQDRGRLLGVATSDNSSTTEVQGRTNNDLQQGQMQMVRDQEQELVALHRIIQAQRGLALEMNEELQTQNELLTALEDDVDNTGRRLQIANKKARHFNNSA | binds | binds |  | 
2 | minimal Q-SNARE complex (GST-Vam7 SD, Vam3ΔN and Vti1) (complex) chain 1: PSTEVTRRAALLRSLLKECDDIGTANIAQDRGRLLGVATSDNSSTTEVQGRTNNDLQQGQMQMVRDQEQELVALHRIIQAQRGLALEMNEELQTQNELLTALEDDVDNTGRRLQIANKKARHFNNSA chain 2: ESSYISIKVNEQSPLLHNEGQHQLQLQEEQEQQQQGLSQEELDFQTIIHQERSQQIGRIHTAVQEVNAIFHQLGSLVKEQGEQVTTIDENISHLHDNMQNANKQLTRADQHQRDRNKCGK chain 3: MSSLLISYESDFKTTLEQAKASLAEAPSQPLSQRNTTLKHVEQQQDELFDLLDQMDVEVNNSIGDASERATYKAKLREWKKTIQSDIKRPLQSLVDSGDRDRLFGDLNASNIDDDQRQQLLSNHAILQKSGDRLKDASRIANETEGIGSQIMMDLRSQRETLENARQTLFQADSYVDKSIKTLKTMTRR | binds | binds |  | binding result [3]: binds; binding result [4]: binds
3 | B1 |  |  | binds | 
4 | GST-tagged Vam7 SNARE domain (190-316) (domain or fragment) PSTEVTRRAALLRSLLKECDDIGTANIAQDRGRLLGVATSDNSSTTEVQGRTNNDLQQGQMQMVRDQEQELVALHRIIQAQRGLALEMNEELQTQNELLTALEDDVDNTGRRLQIANKKARHFNNSA |  |  |  | binding result [6]: binds; binding result [7]: binds; binding result [8]: binds
5 | B2 |  |  |  | binding result [9]: binds
6 | B3 |  |  | binds | 
